These results are taken from patent US20080286287A1 (MURDOCH CHILDRENS RESEARCH INSTITUTE, published 2008).

The target of assay [1] is T1, IGF-II (UniProt P01344 25-91).
T1 construct: also called unlabeled IGF-II
Kind of assay: competitive radioligand binding in solution (125I-IGF-II vs unlabeled IGF-II), immunoprecipitation with anti-IGFBP-2, one-site fit. The text has this:
(§1) Table 4 tabulates data showing the effect of mutagenesis on the affinity of IGFBP-2 for the IGFs. The HBD, ₁₇₉PKKLRP₁₈₄, was mutated to ₁₇₉PNNLAP₁₈₄ and the ₂₆₅RGD₂₆₇ domain was mutated to ₂₆₅RGE₂₆₇. Native and mutant IGFBP-2 were purified by IGF-I affinity chromatography and quantified by an IGFBP-2 ELISA or radioimmuno assay (RIA) as described in the Examples. IGF binding affinities of the modified IGFBP-2 mutants were similar to those of native IGFBP-2.
(§2) The impact of these exemplary mutations in IGFBP-2 were tested to see if they affected IGF binding affinity. Native, HBD and RGD-IGFBP-2 (all 2.5 ng) were incubated with either ¹²⁵I-IGF-I or -II (15,000 cpm) in the presence of increasing concentrations of unlabeled IGF-I or -II (0.0025-0.15 nM). Binding was for 2 h at room temperature in 100 μl binding buffer [BB; 50 mM sodium phosphate pH 7.4, 0.1 M NaCl, 0.05% (w/v) NaN3, 0.2% fatty acid free BSA (Sigma, Steinheim, Germany), 0.1% (v/v) Triton X-100]. […] Bound radioactivity in precipitates was quantified in a γ-counter. Each point was measured in quadruplicate. […]

Assay [2] has as its target T2, Human-IGF-I (human, UniProt P05019 49-118).
T2 construct: also called IGF-1
Kind of assay: competitive radioligand binding in solution (125I-IGF-I vs unlabeled IGF-I), immunoprecipitation with anti-IGFBP-2, one-site fit.
Source text: as §1, §2

T2 sequence (P05019 49-118 limits assumed): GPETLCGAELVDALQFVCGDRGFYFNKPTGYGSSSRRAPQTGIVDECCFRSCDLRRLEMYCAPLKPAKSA
T1 sequence (P01344 25-91 limits assumed): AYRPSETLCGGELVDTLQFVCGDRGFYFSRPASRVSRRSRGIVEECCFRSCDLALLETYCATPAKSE

B1: HBD-IGFBP-2 mutant (179PKKLRP184 mutated to 179PNNLAP184) (other)
chain: EVLFRCPPCTPERLAACGPPPVAPPAAVAAVAGGARMPCAELVREPGCGCCSVCARLEGEACGVYTPRCGQGLRCYPHPGSELPLQALVMGEGTCEKRRDAEYGASPEQVADNGDDHSEGGLVENHVDSTMNMLGGGGSAGRKPLKSGMKELAVFREKVTEQHRQMGKGGKHHLGLEEPNNLAPPPARTPCQQELDQVLERISTMRLPDERGPLEHLYSLHIPNCDKHGLYNLKQCKMSLNGQRGECWCVNPNTGKLIQGAPTIRGDPECHLFYNEQQEARGVHTQRMQ
notes: Positions are as printed; also called HBD modified IGFBP-2; PCS3
On to B1, for which the dissociation constant Kd worked out at 520 pM in assay [1] and 1450 pM in assay [2].

In general, Kd refers to the free concentration of one partner at which half of the binding sites on the other are occupied at equilibrium, for simple one-to-one binding.
